# Results from the DeepSol protein solubility set.
# Test: soluble on expression in E. coli; label from the status in PepcDB or PDB records
row,Sequence,soluble on expression in E. coli
1,MGVERIKAAFENGKKAFIPYVMGGDGGLEILKERIRFLDEAGASIVEIGIPFSDPVADGPTIQRAGKRALDSGVTVKGIFQALIEVRKEVQIPFVLMTYLNPVLAFGKERFIENCMEAGVDGIIVPDLPYEEQDIIAPLLREANIALIPLVTVTSPIERIKKITSESEGFVYAVTVAGVTGVRQNFKDEIHSYLEKVKSHTHLPVVAGFGISTKEHVEEMVTICDGVVVGSKVIELLENEKREEICEFIQATKQKEEA,not soluble
2,MGVFTFQDEYTSTIAPAKLYKALVTDADIIIPKAVETIQSVEIVEGNGGPGTIKKLTFIEGGESKYVLHKIEAIDEANLGYNYSIVGGVGLPDTIEKISFETKLVEGANGGSIGKVTIKIETKGDAQPNEEEGKAAKARGDAFFKAIESYLSAHPDYN,soluble
3,MGVISAYAVVHERAAIIDPGTAKGAEIILDEIDRSWNVEYICPTHIHIDHGGGAARLAKALDAKIIVHPRGVKHVVNPEKLWEASKAVLGEVAEIYGKPESIDESKVIAVEDEQEFDLGGERLKVFHAPGHAPHMLVYYLTNSKVLFPADAVGMCFGGVVFPLTPPPFDADAALKTLKRLKGLKVDYVAFTHYGVVELEHHHHHH,soluble
4,MGVSLAKGGNVSLSKEAPGLTAVLVGLGWDVRTTTGTDYDLDASALLLDTSGKVLSDGHFVFYNNLTSPDGSVEHTGDNLTGEGEGDDEAVKVNLVAVPAEVDRIVFPVSIHDAENRGQSFGQVRNAFIRVVNQANNQELARYDLSEDASTETAMVFGELYRHGAEWKFRAVGQGYASGLAGIAADFGVNV,not soluble
5,MGVSRVLHVEGGTPLKGELRVYPAKNAALPILAASLLTPEPITLVEVPRLRDVEVMLELLAHLGTQYAWEGRTLHLQTPEIKSTHAPYELVGQMRASFIVWGALLARAGEGHVSMPGGCAFGFRPVDQHIKALEALGAEVWEEDGTFHARRTRPLSGRVVFDLPTVGGTEQAMLAVALGGEATLVQAAVEPEVVDLGHFLALLGAEVEGLGSPIVRIKGAPRLKGGTYRIIPDRIEAGTYLLAAAATRGSLTLEGVRPDHLDALLDKLWRSGHRLEVGEDWIRFRATPDPAPFHVEAREYPGFPTDLQPIATAYLATVPGQSTVVDRIYPDRFTHVGELARMGAELYLRDRILTVQGRRLHGAQVKALDIRAGGALVVAALSAEGASEIEGVYFLERGYEHLTERLQALGARVHLRESPVALAAD,soluble
6,MGVYDYKNFGTADSKALFSDAMAITLYSYHNLDNGFAAGYQHNGFGLGLPATLVTALLGGTDSQGVIPGIPWNPDSEKLALDAVKKAGWTPITASQLGYDGKTDARGTFFGEKAGYTTAQVEILGKYDAQGHLTEIGIAFRGTSGPRENLILDSIGDVINDLLAAFGPKDYAKNYVGEAFGNLLNDVVAFAKANGLSGKDVLVSGHSLGGLAVNSMADLSGGKWGGFFADSNYIAYASPTQSSTDKVLNVGYENDPVFRALDGSTFTGASVGVHDAPKESATDNIVSFNDHYASTAWNLLPFSILNIPTWISHLPTAYGDGMNRIIESKFYDLTSKDSTIIVANLSDPARANTWVQDLNRNAETHKGSTFIIGSDSNDLIQGGSGNDYLEGRAGNDTFRDGGGYNVILGGAGNNTLDLQKSVNTFDFANDGAGNLYVRDANGGISITRDIGSIVTKEPGFLWGLFKDDVTHSVTASGLKVGSNVTQYDASVKGTNGADTLKAHAGGDWLFGLDGNDHLIGGVGNDVFVGGAGNDLMESGGGADTFLFNGAFGQDRVVGFTSNDKLVFLGVQGVLPNDDFRAHASMVGQDTVLKFGGDSVTLVGVALNSLSADGIVIA,soluble
7,MGWPFIGETISFFKPHRSDSIGTFLQQRVSRYGKVFKSNICGGKAVVSCDQELNMFILQNEGKLFTSDYPKAMHDILGKYSLLLATGEIHRKLKNVIISFINLTKSKPDFLHCAENLSISILKSWKNCREVEFHKEVKIFTLSVMVNQLLSIKPEDPARLYVLQDFLSYMKGFISLPIPLPGTGYTNAIKVRSNRNIHQNAIIEDMNNAIREEDFLDSIISNEDEEHAAIRAKKGDGELLNWEDYQKMEFTQCVISEALRCGNIVKTVHRKATHDIKFNEYVIPKGWKVFPIFTAVHLDPSLHENPFEFNPMRWTKTTAFGGGVRVCPGGELGKLQIAFFLHHLVLSYRWKIKSDEMPIAHPYVEFKRGMLLEIEPTKFLED,soluble
8,MGYEGIIVVDVRDAEAYKECHIPTAISIPGNKINEDTTKRLSKEKVIITYCWGPACNGATKAAAKFAQLGFRVKELIGGIEYWRKENGEVEGTLGAKADLFWNMKKESLEHHHHHH,not soluble
9,MGYIEDMRNLVGNHPLILIGSHAIILNEKDEVLLQLRTDFNRWGIIGGALEYNETLEDALKREVFEETGLIIKNPELFRTYSGPDFFQIYPNGDQVHGVLVVYICREFHGELVCDHTESKELRFFSLDELPNNLPPVIEKIITDYLKK,not soluble
10,MHALHFSASDKAALYREVLPQIESVVADETDWVANLANTAAVLKEAFGWFWVGFYLVDTRSDELVLAPFQGPLACTRIPFGRGVCGQAWAKGGTVVVGDVDAHPDHIACSSLSRSEIVVPLFSDGRCIGVLDADSEHLAQFDETDALYLGELAKILEKRFEASRQAV,soluble
11,MHATDQTFQILLSQLLEKVEDRCPECGSEQYVWQQKNKDGTERCAPTCWSCGYKMLKKHEQQANQQRSQESFMARTQKFFHQGSLIADDALRQCRLTNYQTTELETRQAKERALAAVSAIVEGKPIHVIFSGKPGVGKSHLAISILVEVLERSAYQKYCLFVSYSELLEKLKMSMNESAKSQAKAQAYITRMKKADVLVLDDLGAELGIKNKVSTDFNNDILNRILEARQNKATIFTTNFSGKQLVEAYGTRIISRLMKHANGYVFQYKDTTDKRMRSVKLEHHHHHH,not soluble
12,MHCNDGGPATLGLFSDSDLQQPARVEVLGPQSRVLRGFALPWVEALLPQLDAVLAAAPFRQMQTPGGFTMSVGLSSCGQLGWTTDRSGYRYSPIDPQSQRPWPALPKVFQELAEAAAEAAGFPGFAPDSCLINCYRPGAKMSLHQDKNERDYSAPIVSLSLGLPAIFLFGGRQRSDKSQRVALLHGDVVVWGGVDRLRYHGVLALKDGHHPLLGQQRINLTLRRAGLEHHHHHH,not soluble
13,MHDKMHDTGTRSDMARFNPLHGNPLKSRADVRRALDDSFAPLLPYFSPGGARVALSGTAAHFDRAAADLEGFARPLWGIAPLALSGDTFAHWPLLAKGIANGTDPAHPDYWGDVRQKDQRLVELAAIGFALRLAPQHLWEPLSDAQKENVSRYLLAARERNYADNNWKFFRVMVDMALDHLGIGFDRSLTETFQKELDDFYIADGWYRDGNYRRIDHYIAFAMHFYGLIYARLSKPDDAYAKRYRERARLFAGDFASWFDEDGGALAFGRSMTYRFACGGFWAGLAFADEEALPWGEIKGLYLSHLRWWAEKPIADRDGVLSIGYAYPQLTMSESYNSAGSPYWAFKAFLPLALPESHPFWQAQETLPKVSTNPHPLVHPGMVMMRAKGNVTALSSGQENLAMRGGPEKYAKFAYSSRYGFGVEVDERGFRTNGFDNILAFSDDGLHYRVRETNRKVLMAGANLRATWKPFPDVTVETTLVAAENWHVRLHRITSARALAVAEGGFAINRNDGERDVVSETGGKATADCGTDISAIVDLGSTISRHGVALKALPNTNLINAKTTVPQLRGEIPAGETMLACAVFAGVAGAESERALAAVPACPDLEALDRLFADRGVPVSAMAGEPQLEHHHHHH,not soluble
14,MHDLDRNEDRLRGTYDFPFEFHHIDHNHPRYVMSYHWHVEYEIIRILDGSLTVTLDEKSFTATAGDIIFVHSGILHSGIPEDCVYQCIVFDGNTFLKNNSVCAGYMQKIIHQEILIYHHFTPKYVDICATVNSLFDALWKKPSGYELSVLGQFYHFFGLIFGNHYYLESVTRARRDYKRILQLKQVLDFIEHNYASPLTLQQLSASVSMSPKYFCRFFSEMTHQTPMDYLNHQRIEQACYQLSTTDDSITEIAYRNGFNDLSYFIRTFKKYKGITPGKYKKA,not soluble
15,MHDTEKSDSGIVAEKPTNKAGLLAAEWAEPRPGTKGNAEQQRMHRTQGRARMTQSLDRVRTAARLRKKDRFTALFHHINVDTLRAAFFALRRKAAPGVDGMTWEDYEEDLEPRLADLHKRVQRGAYRPQPSRRTYIPKADGKQRPLAIAALEDKIVQGANRHRAQRHLRRRLLWLFLRVSARQRTTAAALEHHHHHH,soluble
16,MHDVPPFSGAKLALFYGDHLVVYKRDEKPGIPFPGYWDFPGGGREGLETPAECALRELEEEFSIRLEEPRIEWQRQYPSTSGSAPFAYFLVARLEDREFEAIRFGDEGQYWRLMEVDAYLAHAMAVPYLQSRLGDYLRERRRIGE,soluble
17,MHEQLNSRVETCYLQAETFFKRTFKRPVVSFQLRGQKAGVAHLHENLLRFNPQLYQENAEDFLRQTVPHEVAHLVAHQLFGGGIQPHGEEWQLIMRGVYELPPNRCHTYAVQRRSVIRYIYRCPCPDSDFPFTSQRHSMVRKGRRYLCRRCREPLMFSGETRTELEHHHHHH,not soluble
18,MHFELNQATHCKNHVVIHNELSPGIILNIACRKGSIDDKPTRFHKLNFKDPSYVIEFEDNYPNDETWYCLLSHGTRPKYWYDIQVYRQGIQPKCNQLRLWIARMDGIWFTRRYESPPGHVLDWKI,not soluble
19,MHFSRIVSGLACSIILNISVSNANAAQVENYTQYLPDGANLALMVQKIGASTPAIDYHAQQMALPASTQKVLTALAALLQLGPDFRFNTTLESHGTITDGVLRGNLIARFGGDPTLTRQQLRNMVATLRKAGVKQIAGDVVIDTSVFASHDKAPGWPWNDMTQCFSAPPAAAIVDRNCFSVSLYSAPNPGDTAFIRVASYYPVQMFSEVRTLAKGSPDAQYCELDVVPGELNRFTLTGCLTQRSEPLPLAFAVQNGASYAGAILKDELKKADIQIDGNLRRQTIPSPAGNVLAQTQSAPLHDLLKIMLKKSDNMIADTVFRTIGHQRFGVPGTWRSGADAVRQILRQKAGVDLGNSIVVDGSGLSRHNLISPATMMQVLQYIAQNDQELNFISMLPLAGYDGTLRYRGGLHEAGVNGKVSAKTGALQGVYNLAGFITTASGQRMAFVQFLSGYAVPPEDQKNRRAPLVRFESRLYKDIYQNN,not soluble
20,MHHHHHHGSTKTNSEILEQLKQASDGLLFMSESEYPFEVFLWEGSAPPVTHEIVLQQTGHGQDAPFKVVDIDSFFSRATTPQDWYEDEENAVVAKFQKLLEVIKSNLKNPQVYRLGEVELDVYVIGETPAGNLAGISTKVVET,soluble
21,MHHHHHHMSGGLTPDQAIDAIRGTGGAQPGCRALHAKGTLYRGTFTATRDAVMLSAAPHLDGSTVPALIRFSNGSGNPKQRDGAPGVRGMAVKFTLPDGSTTDVSAQTARLLVSSTPEGFIDLLKAMRPGLTTPLRLATHLLTHPRLLGALPLLREANRIPASYATTEYHGLHAFRWIAADGSARFVRYHLVPTAAEEYLSASDARGKDPDFLTDELAARLQDGPVRFDFRVQIAGPTDSTVDPSSAWQSTQIVTVGTVTITGPDTEREHGGDIVVFDPMRVTDGIEPSDDPVLRFRTLVYSASVKLRTGVDRGAQAPPV,soluble
22,MHHHHHHSENTFIFPATFMWGTSTSSYQIEGGTDEGGRTPSIWDTFCQIPGKVIGGDCGDVACDHFHHFKEDVQLMKQLGFLHYRFSVAWPRIMPAAGIINEEGLLFYEHLLDEIELAGLIPMLTLYHWDLPQWIEDEGGWTQRETIQHFKTYASVIMDRFGERINWWNTINEPYCASILGYGTGEHAPGHENWREAFTAAHHILMCHGIASNLHKEKGLTGKIGITLNMEHVDAASERPEDVAAAIRRDGFINRWFAEPLFNGKYPEDMVEWYGTYLNGLDFVQPGDMELIQQPGDFLGINYYTRSIIRSTNDASLLQVEQVHMEEPVTDMGWEIHPESFYKLLTRIEKDFSKGLPILITENGAAMRDELVNGQIEDTGRQRYIEEHLKACHRFIEEGGQLKGYFVWSFLDNFEWAWGYSKRFGIVHINYETQERTPKQSALWFKQMMAKNGF,soluble
